In publication PMC4760774:

Target: Dengue virus serotype 3 nonstructural protein 5 with a six-residue deletion in the priming loop (DENV3 NS5-Δ6) (dengue virus serotype 3 (DENV3))
Assay: crystal structure

With “Dengue virus serotype 3 nonstructural protein 5 with a six-residue deletion in the priming loop (DENV3 NS5-Δ6) (enzyme)” the stoichiometry N was 2.
